Values quoted from earlier work in US7037697B2, “Isozyme of autoclavable superoxide dismutase (SOD), a process for the identification and extraction of the SOD and use of the said SOD in cosmetic, food, and pharmaceutical compositions” (Council of Scientific & Industrial Research, priority 2000, dated 2006).

Conditions: Cu/Zn-SOD, Bonaccorsi di Patti et al. 1994

Row | Molecule | conformational melting temperatures [°C]
1 | ox: Cu/Zn-SOD from ox | 88.05
2 | yeast: Cu/Zn-SOD from yeast (protein, UniProt P00445 2-154, looked up) Superoxide dismutase [Cu-Zn]: VQAVAVLKGDAGVSGVVKFEQASESEPTTVSYEIAGNSPNAERGFHIHEFGDATNGCVSAGPHFNPFKKTHGAPTDEVRHVGDMGNVKTDENGVAKGSFKDSLIKLIGPTSVVGRSVVIHAGQDDLGKGDTEESLKTGNAGPRPACGVIGLTN | 73.1
